Experimental findings from publication PMC11861179, “Propionate metabolism in Desulfurella acetivorans” (Frontiers in Microbiology, 2025) are described below.

What all share (experiment): purified protein
Data set [1] concerns O=C(O)CC(=O)C(=O)O. Conditions: co-substrate acetyl-CoA, 100 mM Tris-HCl pH 7.8, 55°C.
Data set [2] deals with CCC(=O)SCCNC(=O)CCNC(=O)[C@H](O)C(C)(C)COP(=O)(O)OP(=O)(O)OC[C@H]1O[C@@H](n2cnc3c(N)ncnc32)[C@H](O)[C@@H]1OP(=O)(O)O. Conditions: co-substrate oxaloacetate, 100 mM Tris-HCl pH 7.8, 55°C.
Data set [3] concerns CC(C)(COP(=O)(O)OP(=O)(O)OC[C@H]1O[C@@H](n2cnc3c(N)ncnc32)[C@H](O)[C@@H]1OP(=O)(O)O)[C@@H](O)C(=O)NCCC(=O)NCCS. The settings on record: citrate cleavage direction, 55°C.
Data set [4] relates to CC(=O)SCCNC(=O)CCNC(=O)[C@H](O)C(C)(C)COP(=O)(O)OP(=O)(O)OC[C@H]1O[C@@H](n2cnc3c(N)ncnc32)[C@H](O)[C@@H]1OP(=O)(O)O. Conditions: co-substrate oxaloacetate, 100 mM Tris-HCl pH 7.8, 55°C.

Take “Si-citrate/2-methylcitrate synthase (AHF97591) (Desulfurella acetivorans A63)”: the Km (in general, the concentration of substrate that gives half-maximal velocity) worked out at 30 ± 4.4 µM in data set [1], 22 ± 3.5 µM in data set [2], 41 ± 11 µM in data set [3] and 14 ± 1.8 µM in data set [4]. The Vmax (commonly the rate approached at saturating substrate) worked out at 21 µmol/min/mg in data set [1], 7.4 µmol/min/mg in data set [2], 0.1 µmol/min/mg in data set [3] and 26 µmol/min/mg in data set [4]. Further, the kcat/Km (usually the turnover number divided by the Michaelis constant) stood at 600 M⁻¹ s⁻¹ in data set [1], 300 M⁻¹ s⁻¹ in data set [2], 2000 M⁻¹ s⁻¹ in data set [3] and 1500 M⁻¹ s⁻¹ in data set [4].
